Experiments:
[1] = biological target: PP2A regulatory subunit B56δ (human (endogenous in human HEK TER cells)) (UniProt Q14738); assay: anti-FLAG co-IP from HEK TER cells, immunoblot, densitometry; +++ >90%, ++ 50-90%, + <50%
endogenous RalA (human) = endogenous RalA (human) (UniProt P11233); assay: cell-based or functional assay
endogenous RalA (human), sequence (P11233 1-203 limits assumed): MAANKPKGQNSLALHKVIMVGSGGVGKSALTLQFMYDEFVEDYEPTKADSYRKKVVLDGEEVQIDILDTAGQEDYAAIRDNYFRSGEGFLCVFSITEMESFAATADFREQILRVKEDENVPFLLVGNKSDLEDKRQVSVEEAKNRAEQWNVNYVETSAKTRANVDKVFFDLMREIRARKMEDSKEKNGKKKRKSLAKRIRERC

PP2A regulatory subunit B56δ (human (endogenous in human HEK TER cells)), sequence (Q14738 whole entry, stated change not applied): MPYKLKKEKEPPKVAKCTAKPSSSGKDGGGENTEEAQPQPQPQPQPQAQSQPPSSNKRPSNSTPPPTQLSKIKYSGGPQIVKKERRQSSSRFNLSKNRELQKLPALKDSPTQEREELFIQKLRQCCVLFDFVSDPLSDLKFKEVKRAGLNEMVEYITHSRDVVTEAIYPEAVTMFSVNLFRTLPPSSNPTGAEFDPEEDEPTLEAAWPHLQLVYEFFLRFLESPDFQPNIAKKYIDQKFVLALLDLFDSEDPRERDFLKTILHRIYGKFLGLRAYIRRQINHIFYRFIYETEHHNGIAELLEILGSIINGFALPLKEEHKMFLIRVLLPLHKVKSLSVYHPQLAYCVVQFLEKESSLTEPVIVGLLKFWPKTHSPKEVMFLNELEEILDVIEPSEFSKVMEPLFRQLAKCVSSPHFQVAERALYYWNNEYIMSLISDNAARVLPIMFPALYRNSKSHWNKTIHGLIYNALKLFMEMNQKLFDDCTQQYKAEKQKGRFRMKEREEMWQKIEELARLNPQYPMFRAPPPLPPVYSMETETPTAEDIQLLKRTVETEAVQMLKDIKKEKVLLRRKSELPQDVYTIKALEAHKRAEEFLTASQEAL
wild type (WT) FLAG epitope-tagged version of PP2A Aβ, sequence (P30154 whole entry): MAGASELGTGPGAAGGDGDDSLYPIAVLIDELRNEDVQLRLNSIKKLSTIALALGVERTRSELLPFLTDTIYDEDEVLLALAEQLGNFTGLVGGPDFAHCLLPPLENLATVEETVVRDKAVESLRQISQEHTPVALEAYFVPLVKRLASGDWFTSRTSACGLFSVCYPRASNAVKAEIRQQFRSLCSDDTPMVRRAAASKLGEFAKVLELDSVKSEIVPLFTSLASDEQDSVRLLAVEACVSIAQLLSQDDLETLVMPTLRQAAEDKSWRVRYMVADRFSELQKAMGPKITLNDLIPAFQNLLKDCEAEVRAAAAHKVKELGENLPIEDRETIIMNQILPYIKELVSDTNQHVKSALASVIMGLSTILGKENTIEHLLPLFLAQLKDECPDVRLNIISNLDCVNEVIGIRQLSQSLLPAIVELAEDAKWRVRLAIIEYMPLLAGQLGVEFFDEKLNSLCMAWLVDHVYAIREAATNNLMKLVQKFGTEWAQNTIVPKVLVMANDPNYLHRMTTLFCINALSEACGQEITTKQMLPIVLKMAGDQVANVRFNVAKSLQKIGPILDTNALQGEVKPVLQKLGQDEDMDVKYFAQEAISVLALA
cancer-derived FLAG-tagged PP2A Aβ mutant G8R, sequence (P30154 other isoform, or with tags, fused parts or gaps limits assumed, stated change not applied): as the sequence (P30154 whole entry) above, with G8R counted along it

binding level (percent, co-immunoprecipitation densitometry) [1] [%]	GTP-bound RalA levels (RalA activation assay, RalBP1 agarose pull-down) (endogenous RalA (human)) [fold]	Substance
> 90		cancer-derived FLAG-tagged PP2A Aβ mutant D504G (from UniProt P30154 1-601)
< 50		cancer-derived FLAG-tagged PP2A Aβ mutant G8R (from UniProt P30154 1-601)
50 to 90		cancer-derived FLAG-tagged PP2A Aβ mutant K343E (from UniProt P30154 1-601)
50 to 90		cancer-derived FLAG-tagged PP2A Aβ mutant P65S (from UniProt P30154 1-601)
	4.5	endogenous PP2A Aβ (from UniProt P30154 2-601)
> 90		wild type (WT) FLAG epitope-tagged version of PP2A Aβ (from UniProt P30154 1-601)

Source: patent US20110306057A1
